# Source: patent US20250297013A1 (HK INNO N, published 2025)
# B1: Anti-HLA-G antibody 1 (antibody, V domains shown)
# VH: EVQLLESGGGLVQPGGSLRLSCAASGFTFSDYAMSWVRQAPGKGLEWVSVISHDGDRVYYADSVKGRFTISRDNSKNTLYLQMNSLRAEDTAVYYCAKGPRRIANAIFDYWGQGTLVTVSS
# VL: QLVLTQPPSVSGAPGQKVTISCSGSSSNIGHSYVSWYQQLPGTAPKLLIYGDNNRPSGVPDRFSGSKSGTSASLAITGLQAEDEADYYCQSYDSSLSGYVFGTGTKVTVL
# B2: Anti-HLA-G antibody 2 (antibody, IgG1, V domains shown)
# VH: EVQLLESGGGLVQPGGSLRLSCAASGFTFSDYAMSWVRQAPGKGLEWVSVISHDGGSIYYADSVKGRFTISRDNSKNTLYLQMNSLRAEDTAVYYCAKGPRRIANAIFDYWGQGTLVTVSS
# VL: QFVLTQPPSVSAAPGQKVTISCSGSNSNIGNSYVSWYQQVPGAAPRLLIYGSTNRPSGVPDRFSGSKSGTSASLAITGLQAEDEADYYCQSYDSSLSGYVFGTGTKVTVL
# B3: Anti-HLA-G antibody 4 (antibody, IgG1, V domains shown)
# VH: EVQLLESGGGLVQPGGSLRLSCAASGFTFSDYSMSWVRQAPGKGLEWVSAISPDSGSKYYADSVKGRFTISRDNSKNTLYLQMNSLRAEDTAVYYCAKGPRHLTNNIFDYWGQGTLVTVSS
# VL: QSVLTQPPSASGTPGQRVTISCTGSSSNIGSNYVSWYQQLPGTAPKLLIYADSNRPSGVPDRFSGSKSGTSASLAISGLRSEDEADYYCASWDYSLSGYVFGGGTKLTVL
# B4: Anti-HLA-G antibody 3 (antibody, IgG1, V domains shown)
# VH: EVQLLESGGGLVQPGGSLRLSCAASGFTFSDYSMSWVRQAPGKGLEWVSAISPDRSLEYYADSVKGRFTISRDNSKNTLYLQMNSLRAEDTAVYYCAKGPRHLTNNIFDYWGQGTLVTVSS
# VL: QFVLTQPPSVSAAPGQKVTISCSGSSSNIGHSYVSWYQQLPGTAPKLLIYGNIHRPSGVPDRFSGSTSGTSASLAITGLQADDEADYYCGVWDSSLSAVVFGGGTKLTVL
# How the values were obtained:
# HLA-G dimer (signal …) [1] = target: T1, HLA-G dimer (signal peptide-b2m-HLA-G-6xHis antigen of Example 1, dimer fraction) (human); assay: SPR, HLA-G dimer
# T1 construct: also called HLA-G multimers
# HLA-G dimer (signal …) [2] = target: T1, HLA-G dimer (signal …); assay: CD8a block ELISA: dimeric antigen coated, antibody 0.391 nM, competitor CD8a-His 100 nM, anti-CD8a-HRP detection
# Experimental: The diluted anti-HLA-G antibody was dispensed into 96 wells and allowed to react for one hour. […] After a reaction for one hour, each well was washed with PBS-T, and a tetramethylbenzidine (TMB) solution was added to each well to develop color.
# [3] = target: T2, HLA-G antigen produced in Example 1 (signal peptide-b2m-HLA-G-6xHis; monomer or dimer not stated) (human); assay: Octet (BLI); form of the antigen not stated
# T2 construct: also called b2m-HLA-G antigen
# HLA-G monomer (signal …) = target: T3, HLA-G monomer (signal peptide-b2m-HLA-G-6xHis antigen of Example 1, monomer fraction) (human); assay: SPR, HLA-G monomer
# T3 construct: also called b2m-HLA-G antigen
# [4] = target: T2, HLA-G antigen produced in Example 1 …; assay: ILT2 block ELISA: competitor ILT-2-Fc coated, antigen of Example 1 pre-mixed with antibody dilutions, anti-His-HRP detection
# Experimental: After dispensing 200 μL of blocking solution into each well, the reactants were allowed to react at 37° C. for one hour to block nonspecific protein binding.
# After completely removing the blocking solution from each well, the wells were washed with PBS-T.
# Each well was washed three times with 200 μl of 1×PBS-T, and the absorbance was measured at 450 nm using a multi-mode microplate reader.
Binder,Kd (HLA-G dimer (signal …) [1]) [nM],CD8a Block EIA (%) (HLA-G dimer (signal …) [2]),Kd [3] [nM],Kd (HLA-G monomer (signal …)) [nM],IC50 [4] [nM]
B1,1.11,39.5,0.284,15,155
B2,0.841,39,0.549,9.3,146
B3,4.88,32.1,1.45,,144
B4,3.98,37.7,1.06,28.1,164
